Experimental data taken from patent US20260152732.

Tested on: T1, DNASE1-LIKE 3, Isoform 1 (wild-type human D1L3), purified
T1 sequence: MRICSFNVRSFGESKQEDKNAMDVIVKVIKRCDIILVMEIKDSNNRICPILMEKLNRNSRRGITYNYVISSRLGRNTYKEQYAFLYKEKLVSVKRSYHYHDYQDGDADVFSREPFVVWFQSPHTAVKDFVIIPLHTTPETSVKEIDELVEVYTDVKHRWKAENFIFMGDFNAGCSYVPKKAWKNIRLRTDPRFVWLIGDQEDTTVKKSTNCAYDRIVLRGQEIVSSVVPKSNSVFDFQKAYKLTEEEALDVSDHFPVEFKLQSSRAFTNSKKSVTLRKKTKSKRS

Substance	proteolytic cleavage sites (digestion, fragments sequenced by LC and MS)
plasmin (purified)	plasmin cleaved D1L3 at the following arginine and lysine residues: R22, R29, K45, K47, K74, R81, R92, K107, K176, R212, R226, R227, K250, K259, and K262
trypsin	trypsin cleaved D1L3 at the following arginine and lysine residues: R22, R29, R51, R66, R80, R81, R95, K99, R115, K147, K163, K180, R208, R212, R235, R239, K250, and K262
